{
  "source": "patent US20200332015A1",
  "about": "(NAMAB THERAPEUTICS, published 2020)",
  "binders": {"B1": {"name": "urelumab (antibody, V domains shown)", "VH": "QVQLQQWGAGLLKPSETLSLTCAVYGGSFSGYYWSWIRQSPEKGLEWIGEINHGGYVTYNPSLESRVTISVDTSKNQFSLKLSSVTAADTAVYYCARDYGPGNYDWYFDLWGRGTLVTVSS", "VL": "EIVLTQSPATLSLSPGERATLSCRASQSVSSYLAWYQQKPGQAPRLLIYDASNRATGIPARFSGSGSGTDFTLTISSLEPEDFAVYYCQQRSNWPPALTFGGGTKVEIK"}, "B2": {"name": "PRO885 (38-02-A04 sc01 scDb-i/33-03-G02 sc01 scDb-o) (bispecific antibody)", "chain": "DIQMTQSPSSLSASVGDRVTITCQASQSINDYLAWYQQKPGKAPKLLIYKASTLASGVPSRFSGSGSGTDFTLTISSLQPEDFATYYCQQGYIITDIDNVFGTGTKVTVLGGGGGSQVQLQESGPGLVKPSETLSLTCKVSGFSFSNSYWICWIRQPPGKGLEWIGCTFVGSSDSTYYANWAKGRVTISVDSSKNQFSLKLSSVTAADTAVYYCARHPSDAVYGYANNLWGQGTLVTVSSGGGGSGGGGSGGGGSGGGGSIQMTQSPSSLSASVGDRVTITCQASQSINNVLAWYQQKPGKAPKLLIYRASTLASGVPSRFSGSGSGTDFTLTISSLQPEDFATYYCQSSYGNYGDFGTGTKVTVLGGGGGSQVQLQESGPGLVKPSETLSLTCKVSGFSFSSGYDMCWIRQPPGKGLEWIGCVVAGSVDITYYASWAKGRVTISVDSSKNQFSLKLSSVTAADTAVYYCARKDAYSDAFNLWGQGTLVTVSS", "notes": "scDb, PDL1 x CD137; also called anti-PDL1xCD137 scDb"}},
  "key": {"[1]": {"target": "T1, human CD137 expressed on Jurkat cells (human, UniProt Q07011 24-255)", "test": "cell-based or functional assay"}, "[2]": {"target": "T1, human CD137 expressed on Jurkat cells", "test": "cell-based or functional assay", "remark": "listed apart in the source"}, "[3]": {"target": "T1, human CD137 expressed on Jurkat cells", "test": "cell-based or functional assay", "remark": "listed apart in the source"}, "[4]": {"target": "T1, human CD137 expressed on Jurkat cells", "test": "cell-based or functional assay", "remark": "listed apart in the source"}, "[5]": {"target": "T1, human CD137 expressed on Jurkat cells", "test": "cell-based or functional assay", "remark": "listed apart in the source"}, "[6]": {"target": "T1, human CD137 expressed on Jurkat cells", "test": "cell-based or functional assay", "remark": "listed apart in the source"}, "[7]": {"target": "T1, human CD137 expressed on Jurkat cells", "test": "cell-based or functional assay", "remark": "listed apart in the source"}, "[8]": {"target": "human PDL1-Fc chimeric protein (human, UniProt Q9NZQ7 19-238, limits assumed)", "test": "SPR T200, antigen-Fc captured, molecule as analyte", "summary_of_the_method": "(§1)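 Apparent KD, ka and kd come from a one-to-one Langmuir model. Species Fc proteins were captured on an immobilized anti-Fc surface, and analyte at 0.12-90 nM (three-fold series) was flowed 3 min with 10-min dissociation; surfaces were stripped with 3 M MgCl₂.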"}, "[9]": {"target": "T2, cynomolgus monkey Fc-tagged CD137 (R&D Systems, cat. 9324-4B-100) (cynomolgus monkey, UniProt A9YYE7 24-186)", "T2 construct": "also called cynomolgus CD137-Fc chimeric protein", "T2 sequence (A9YYE7 entry or part of it)": "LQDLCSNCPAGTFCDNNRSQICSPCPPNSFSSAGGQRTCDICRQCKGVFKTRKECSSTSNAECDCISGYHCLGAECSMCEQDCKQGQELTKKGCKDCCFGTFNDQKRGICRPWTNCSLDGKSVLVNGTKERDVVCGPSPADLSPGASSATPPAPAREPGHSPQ", "test": "SPR T200, antigen-Fc captured, molecule as analyte", "summary_of_the_method": "as §1"}, "[10]": {"target": "T3, mouse Fc-tagged mouse CD137 (R&D Systems, cat. 937-4B-050) (mouse, UniProt P20334 24-187)", "T3 construct": "also called mouse CD137-Fc chimeric protein", "T3 sequence (looked up)": "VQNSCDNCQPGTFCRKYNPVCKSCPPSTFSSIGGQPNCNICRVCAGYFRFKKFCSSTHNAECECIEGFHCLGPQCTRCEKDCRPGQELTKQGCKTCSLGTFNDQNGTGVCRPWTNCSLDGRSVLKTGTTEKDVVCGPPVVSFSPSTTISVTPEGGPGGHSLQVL", "test": "SPR T200, antigen-Fc captured, molecule as analyte", "summary_of_the_method": "as §1"}, "[11]": {"target": "T4, Fc tagged human CD137 (R&D Systems, cat. 838-4B-100) (human, UniProt Q07011 24-186)", "T4 construct": "also called CD137 Fc chimera; human CD137-Fc chimeric protein", "test": "SPR T200, antigen-Fc captured, molecule as analyte", "summary_of_the_method": "as §1"}, "[12]": {"target": "T1, human CD137 expressed on Jurkat cells", "test": "cell-based or functional assay", "remark": "listed apart in the source"}, "[13]": {"target": "T1, human CD137 expressed on Jurkat cells", "test": "cell-based or functional assay", "remark": "listed apart in the source"}, "[14]": {"target": "T1, human CD137 expressed on Jurkat cells", "test": "cell-based or functional assay", "remark": "listed apart in the source"}},
  "note": "Several values for one entry are separate records, joined by “and”; a condition that tells them apart may be missing. Equal entries are not always repeated. Where two headings read alike, the source gives them in different places.",
  "data": [
    {"binder": "B1", "values": [
      {"measurement": "EC50 NFkB-luciferase, HCC827 with IFNy", "setting": "[1]", "result": "0.114 µg/mL and 0.145 µg/mL and 0.108 µg/mL"},
      {"measurement": "EC50 NFkB-luciferase, CHO-PDL1 cells, 6 h", "setting": "[2]", "result": 0.0565, "unit": "µg/mL"},
      {"measurement": "EC50 NFkB-luciferase, CHO-PDL1 cells, 6 h, + HSA", "setting": "[2]", "result": 0.0777, "unit": "µg/mL"},
      {"measurement": "Top of curve fit, NFkB-luciferase, CHO-PDL1 cells, 6 h, + HSA", "setting": "[2]", "result": 106},
      {"measurement": "EC50 NFkB-luciferase, HCC827 with IFNy stimulation", "setting": "[3]", "result": 0.0528, "unit": "µg/mL"},
      {"measurement": "EC50 NFkB-luciferase, HCC827 without IFNy stimulation", "setting": "[3]", "result": 0.0475, "unit": "µg/mL"},
      {"measurement": "EC50 NFkB-luciferase, HCC827 without IFNy", "setting": "[4]", "result": "0.212 µg/mL and 0.11 µg/mL and 0.112 µg/mL"},
      {"measurement": "EC50 NFkB-luciferase, CHO-PDL1 cells", "setting": "[5]", "result": 0.0791, "unit": "µg/mL"},
      {"measurement": "EC50 NFkB-luciferase, CHO-PDL1 cells", "setting": "[6]", "result": "0.0865 µg/mL and 0.0795 µg/mL and 0.104 µg/mL"},
      {"measurement": "EC50 NFkB-luciferase, CHO-PDL1 cells, 24 h", "setting": "[7]", "result": 0.0466, "unit": "µg/mL"},
      {"measurement": "EC50 NFkB-luciferase, CHO-PDL1 cells, 24 h, + HBA (so in the source)", "setting": "[7]", "result": 0.0782, "unit": "µg/mL"},
      {"measurement": "Top of curve fit, NFkB-luciferase, CHO-PDL1 cells, 24 h, + HBA (so in the source)", "setting": "[7]", "result": 90.5}
    ]},
    {"binder": "B2", "values": [
      {"measurement": "EC50 NFkB-luciferase, HCC827 with IFNy", "setting": "[1]", "result": "0.00927 µg/mL and 0.00888 µg/mL and 0.00923 µg/mL"},
      {"measurement": "Kd", "setting": "[8]", "result": 0.065, "unit": "nM"},
      {"measurement": "koff", "setting": "[8]", "result": 0.00014, "unit": "s⁻¹"},
      {"measurement": "kon", "setting": "[8]", "result": "2.1e+06", "unit": "M⁻¹ s⁻¹"},
      {"measurement": "Kd", "setting": "[9]", "result": 2.1, "unit": "nM"},
      {"measurement": "koff", "setting": "[9]", "result": 0.0007, "unit": "s⁻¹"},
      {"measurement": "kon", "setting": "[9]", "result": 340000, "unit": "M⁻¹ s⁻¹"},
      {"measurement": "Kd", "setting": "[10]", "result": 600, "unit": "nM"},
      {"measurement": "koff", "setting": "[10]", "result": 0.18, "unit": "s⁻¹"},
      {"measurement": "kon", "setting": "[10]", "result": 290000, "unit": "M⁻¹ s⁻¹"},
      {"measurement": "Kd", "setting": "[11]", "result": 3.2, "unit": "nM"},
      {"measurement": "koff", "setting": "[11]", "result": 0.00076, "unit": "s⁻¹"},
      {"measurement": "kon", "setting": "[11]", "result": 240000, "unit": "M⁻¹ s⁻¹"},
      {"measurement": "EC50 NFkB-luciferase, CHO-PDL1 cells, 6 h", "setting": "[2]", "result": 0.00784, "unit": "µg/mL"},
      {"measurement": "EC50 NFkB-luciferase, CHO-PDL1 cells, 6 h, + HSA", "setting": "[2]", "result": 0.00792, "unit": "µg/mL"},
      {"measurement": "Top of curve fit, NFkB-luciferase, CHO-PDL1 cells, 6 h, + HSA", "setting": "[2]", "result": 493},
      {"measurement": "EC50 of IL-2 secretion, SEA stimulated PBMC, 96 h", "setting": "[12]", "result": 0.0399, "unit": "µg/mL"},
      {"measurement": "EC50 NFkB-luciferase, HCC827 with IFNy stimulation", "setting": "[3]", "result": 0.00751, "unit": "µg/mL"},
      {"measurement": "EC50 NFkB-luciferase, HCC827 without IFNy stimulation", "setting": "[3]", "result": 0.00952, "unit": "µg/mL"},
      {"measurement": "EC50 NFkB-luciferase, HCC827 without IFNy", "setting": "[4]", "result": "0.0115 µg/mL and 0.0131 µg/mL and 0.013 µg/mL"},
      {"measurement": "EC50 NFkB-luciferase, CHO-PDL1 cells", "setting": "[5]", "result": 0.0117, "unit": "µg/mL"},
      {"measurement": "EC50 NFkB-luciferase, CHO-PDL1 cells", "setting": "[6]", "result": "0.0063 µg/mL and 0.00513 µg/mL and 0.00486 µg/mL"},
      {"measurement": "EC50 NFkB-luciferase, CHO-PDL1 cells, 24 h", "setting": "[7]", "result": 0.0138, "unit": "µg/mL"},
      {"measurement": "EC50 NFkB-luciferase, CHO-PDL1 cells, 24 h, + HBA (so in the source)", "setting": "[7]", "result": 0.0149, "unit": "µg/mL"},
      {"measurement": "Top of curve fit, NFkB-luciferase, CHO-PDL1 cells, 24 h, + HBA (so in the source)", "setting": "[7]", "result": 258},
      {"measurement": "EC50 of IL-2 secretion, PBMC + CHO-PDL1 50,000 cells/well, anti-CD3 1 ug/ml", "setting": "[13]", "result": 0.0129, "unit": "µg/mL"},
      {"measurement": "EC50 of IL-2 secretion, PBMC + CHO-PDL1 50,000 cells/well, anti-CD3 2 ug/ml", "setting": "[13]", "result": 0.052, "unit": "µg/mL"},
      {"measurement": "EC50 of IL-2 secretion, PBMC + CHO-PDL1 100,000 cells/well, anti-CD3 1 ug/ml", "setting": "[13]", "result": 0.0862, "unit": "µg/mL"},
      {"measurement": "EC50 of IL-2 secretion, PBMC + CHO-PDL1 100,000 cells/well, anti-CD3 2 ug/ml", "setting": "[13]", "result": 0.0419, "unit": "µg/mL"},
      {"measurement": "EC50 of IL-2 secretion, PBMC + CHO-PDL1 200,000 cells/well, anti-CD3 1 ug/ml", "setting": "[13]", "result": 0.0806, "unit": "µg/mL"},
      {"measurement": "EC50 of IL-2 secretion, PBMC + CHO-PDL1 200,000 cells/well, anti-CD3 2 ug/ml", "setting": "[13]", "result": 0.0301, "unit": "µg/mL"},
      {"measurement": "max. activation, HCC827 +IFNg", "setting": "[14]", "result": 134, "unit": "%"},
      {"measurement": "max. activation, HCC827 -IFNg", "setting": "[14]", "result": 111, "unit": "%"},
      {"measurement": "max. activation, NF-kB reporter gene, CHO-PD-L1", "setting": "[14]", "result": 499, "unit": "%"},
      {"measurement": "rel. IC50 (urelumab/test), HCC827 +IFNg", "setting": "[14]", "result": 16.3, "unit": "ratio"},
      {"measurement": "rel. IC50 (urelumab/test), HCC827 -IFNg", "setting": "[14]", "result": 8.42, "unit": "ratio"},
      {"measurement": "rel. IC50 (urelumab/test), NF-kB reporter gene, CHO-PD-L1", "setting": "[14]", "result": 6.75, "unit": "ratio"}
    ]}
  ]
}
